Key:
[1] = system: TePif1 (Thermotoga elfii (Pseudothermotoga elfii)); test: EMSA
[2] = system: TePif1-4x (Thermotoga elfii (Pseudothermotoga elfii)); test: EMSA

Question: With 3' tail as the substance, how does the binding signal [1] read?
Answer: The binding signal was greater than 20 % bound.

Question: 5' tail was tested. Which Kd [1] did it give?
Answer: Its Kd is 4.53 nM.

Question: Which Kd [1] does the source give for ssDNA 45-nt here?
Answer: Its Kd is 0.93 nM.

Question: How did the binding signal [2] turn out when “TTTTTTTTTTTTTTTTTTTTTTTTTTTTTTTTTTTTTTTTTTTTTTTTTT [poly(dT) 50mer]” was run?
Answer: The binding signal was 5 % bound.

Question: Fork was tested. Which Kd [1] did it give?
Answer: Its Kd is 4.4 nM.

From paper doi:10.1101/163188
